Experiments:
collagen type III = molecular target: T1, collagen type III (Homo sapiens, UniProt P02461); assay: Binding affinity of CBD-SA to collagen by ELISA
T1 sequence (P02461 154-1221 limits assumed): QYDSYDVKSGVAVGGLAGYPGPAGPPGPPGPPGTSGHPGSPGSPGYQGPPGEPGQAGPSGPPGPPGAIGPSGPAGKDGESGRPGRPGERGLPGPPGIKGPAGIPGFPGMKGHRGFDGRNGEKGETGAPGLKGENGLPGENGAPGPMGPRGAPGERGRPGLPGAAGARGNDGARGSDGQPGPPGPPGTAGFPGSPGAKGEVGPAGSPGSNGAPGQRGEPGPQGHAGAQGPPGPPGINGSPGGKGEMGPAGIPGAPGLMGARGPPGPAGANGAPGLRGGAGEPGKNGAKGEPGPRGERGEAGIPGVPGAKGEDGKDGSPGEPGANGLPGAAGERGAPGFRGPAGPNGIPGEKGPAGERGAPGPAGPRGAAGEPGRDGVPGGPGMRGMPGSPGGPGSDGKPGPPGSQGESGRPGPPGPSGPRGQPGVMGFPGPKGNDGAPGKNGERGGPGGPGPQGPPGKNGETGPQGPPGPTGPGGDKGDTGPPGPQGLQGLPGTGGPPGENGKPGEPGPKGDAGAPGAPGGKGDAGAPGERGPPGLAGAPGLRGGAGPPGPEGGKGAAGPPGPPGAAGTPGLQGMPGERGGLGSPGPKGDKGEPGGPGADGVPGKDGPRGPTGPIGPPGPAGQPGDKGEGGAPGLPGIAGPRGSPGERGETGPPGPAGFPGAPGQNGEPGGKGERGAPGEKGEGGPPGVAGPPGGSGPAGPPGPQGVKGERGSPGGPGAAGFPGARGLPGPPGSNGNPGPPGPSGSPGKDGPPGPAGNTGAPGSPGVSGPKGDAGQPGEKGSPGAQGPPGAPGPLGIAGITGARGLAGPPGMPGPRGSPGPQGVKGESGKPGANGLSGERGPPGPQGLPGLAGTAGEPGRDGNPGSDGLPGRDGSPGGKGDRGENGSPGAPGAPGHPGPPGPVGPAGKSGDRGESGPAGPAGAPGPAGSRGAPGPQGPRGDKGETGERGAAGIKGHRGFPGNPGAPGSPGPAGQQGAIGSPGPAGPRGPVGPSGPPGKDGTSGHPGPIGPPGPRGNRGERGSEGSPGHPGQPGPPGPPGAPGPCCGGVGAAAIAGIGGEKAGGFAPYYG
Protocol: (§1) The binding affinity of CBD-SA to collagens were tested as described previously (9). 96 well ELISA plates (Greiner Bio-One) were coated with collagen I or collagen III (10 μg/mL each in PBS) for overnight at 37° C., followed by blocking with 2% BSA in PBS with 0.05% Tween 20 (PBS-T) for 1 h at room temperature. Then, wells were washed with PBS-T and further incubated with CBD-SA at increasing concentrations for 2 h at room temperature. After three washes with PBS-T, wells were incubated for 1 h at room temperature with biotin- conjugated Abs against mouse SA. After washes, bound CBD-SA were detected with tetramethylbenzidine substrate by measurement of the absorbance at 450 nm with subtraction of the absorbance at 570 nm. The apparent Kd values were obtained by nonlinear regression analysis in Prism software (version 7, GraphPad) assuming one-site-specific binding.

collagen type I = collagen type I (Homo sapiens, UniProt P02452+P08123); assay: Binding affinity of CBD-SA to collagen by ELISA
Protocol: as §1

MMTV-PyMT tumor = assay: Histological analysis of injected CBD-SA within tumor; format: in vivo, mouse; conditions: 1 h after i.v. injection, CD31 staining
Protocol: Mouse SA (Sigma-Aldrich) and CBD-SA were conjugated with NHS-DyLight 488 according to manufacturer's instructions. Unreacted dye was removed by Zeba spin desalting column, then fluorescent protein solution was stored at 4° C. until use. 100 μg of fluorescent labeled SA or CBD-SA labeled with equimolar of dye was intravenously injected to MMTV-PyMT tumor-bearing mice. 1 h after injection, tumors were harvested and frozen in dry ice with OCT compound. 10 μm of tissue slices were obtained by cryo-sectioning. The tissues were fixed with 2% paraformaldehyde in PBS for 15 min at room temperature. After wash with PBS-T, the tissues were blocked with 2% BSA in PBS-T for 1 h at room temperature. The tissues were stained with biotin labeled anti-mouse CD31 antibody (1:100, Biolegend) and Alexa Fluor 647 streptavidin (1:1000, Biolegend). The tissues were washed three times, then covered with ProLong gold antifade mountant with DAPI (Thermo fisher scientific). IX83 microscope (Olympus) was used for imaging with ×60 magnification. Images were processed using ImageJ software (NIH).

Sequence of collagen type I (P02452 162-1218 limits assumed): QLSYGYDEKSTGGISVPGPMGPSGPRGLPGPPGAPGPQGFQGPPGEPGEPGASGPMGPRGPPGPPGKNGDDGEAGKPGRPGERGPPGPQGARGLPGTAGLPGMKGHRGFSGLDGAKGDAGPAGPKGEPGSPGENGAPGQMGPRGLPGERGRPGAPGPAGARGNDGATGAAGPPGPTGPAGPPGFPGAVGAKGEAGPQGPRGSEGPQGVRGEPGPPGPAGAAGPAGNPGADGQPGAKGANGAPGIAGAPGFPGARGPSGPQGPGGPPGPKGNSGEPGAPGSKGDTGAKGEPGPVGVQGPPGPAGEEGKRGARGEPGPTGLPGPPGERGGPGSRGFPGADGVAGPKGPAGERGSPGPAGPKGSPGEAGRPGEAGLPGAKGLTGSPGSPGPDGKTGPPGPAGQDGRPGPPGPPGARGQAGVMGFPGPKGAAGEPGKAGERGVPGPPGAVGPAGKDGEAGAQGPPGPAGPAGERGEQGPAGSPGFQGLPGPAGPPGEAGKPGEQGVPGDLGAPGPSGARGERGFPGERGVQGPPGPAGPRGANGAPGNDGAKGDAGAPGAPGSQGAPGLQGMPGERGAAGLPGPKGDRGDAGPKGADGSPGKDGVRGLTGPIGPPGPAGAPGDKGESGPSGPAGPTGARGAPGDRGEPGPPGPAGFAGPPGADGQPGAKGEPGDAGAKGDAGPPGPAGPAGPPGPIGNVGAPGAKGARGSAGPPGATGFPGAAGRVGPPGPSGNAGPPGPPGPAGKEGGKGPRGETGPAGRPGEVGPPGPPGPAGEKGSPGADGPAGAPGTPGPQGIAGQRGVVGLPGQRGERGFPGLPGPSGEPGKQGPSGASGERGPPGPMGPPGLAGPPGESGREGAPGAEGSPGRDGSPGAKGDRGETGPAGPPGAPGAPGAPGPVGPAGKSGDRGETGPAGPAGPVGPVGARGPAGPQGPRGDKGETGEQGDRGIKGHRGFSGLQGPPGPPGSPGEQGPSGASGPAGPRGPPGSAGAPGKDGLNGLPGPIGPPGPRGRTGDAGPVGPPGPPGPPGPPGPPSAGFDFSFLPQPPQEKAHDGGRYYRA
Sequence of collagen type I (P08123 80-1119 limits assumed): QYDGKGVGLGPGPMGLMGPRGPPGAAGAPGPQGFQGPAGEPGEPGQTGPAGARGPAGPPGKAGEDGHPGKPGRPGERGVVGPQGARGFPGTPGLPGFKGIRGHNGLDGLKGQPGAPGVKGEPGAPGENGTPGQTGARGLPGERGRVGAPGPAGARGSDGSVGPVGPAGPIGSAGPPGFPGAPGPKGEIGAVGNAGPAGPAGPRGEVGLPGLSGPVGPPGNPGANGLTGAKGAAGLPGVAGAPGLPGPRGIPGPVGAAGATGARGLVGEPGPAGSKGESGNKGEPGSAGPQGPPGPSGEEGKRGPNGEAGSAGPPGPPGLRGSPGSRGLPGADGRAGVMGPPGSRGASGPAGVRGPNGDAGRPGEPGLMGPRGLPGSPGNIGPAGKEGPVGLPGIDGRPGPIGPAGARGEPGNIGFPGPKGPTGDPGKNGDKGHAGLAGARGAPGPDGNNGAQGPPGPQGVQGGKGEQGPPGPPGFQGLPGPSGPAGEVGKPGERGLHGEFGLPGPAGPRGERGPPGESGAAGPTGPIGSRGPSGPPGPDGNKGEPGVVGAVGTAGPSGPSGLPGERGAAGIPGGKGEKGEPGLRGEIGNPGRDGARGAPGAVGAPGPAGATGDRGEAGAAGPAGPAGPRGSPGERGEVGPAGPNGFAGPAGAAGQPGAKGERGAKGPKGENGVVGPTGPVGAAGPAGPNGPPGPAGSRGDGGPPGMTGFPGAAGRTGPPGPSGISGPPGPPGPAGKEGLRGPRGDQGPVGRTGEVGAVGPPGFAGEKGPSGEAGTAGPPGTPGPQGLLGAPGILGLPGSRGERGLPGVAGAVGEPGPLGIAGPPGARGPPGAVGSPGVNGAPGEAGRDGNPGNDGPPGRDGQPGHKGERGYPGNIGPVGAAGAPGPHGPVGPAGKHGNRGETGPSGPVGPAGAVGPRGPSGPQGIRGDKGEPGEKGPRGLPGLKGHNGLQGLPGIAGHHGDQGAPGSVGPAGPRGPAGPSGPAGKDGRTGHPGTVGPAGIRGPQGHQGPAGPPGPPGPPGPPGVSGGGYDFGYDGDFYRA

B1: CBD-SA: recombinant mouse serum albumin with VWF A3 collagen binding domain on the N-terminus via (GGGS)2 linker (SEQ ID NO:3) (protein)
chain: CSQPLDVILLLDGSSSFPASYFDEMKSFAKAFISKANIGPRLTQVSVLQYGSITTIDVPWNVVPEKAHLLSLVDVMQREGGPSQIGDALGFAVRYLTSEMHGARPGASKAVVILVTDVSVDSVDAAADAARSNRVTVFPIGIGDRYDAAQLRILAGPAGDSNVVKLQRIEDLPTMVTLGNSFLHKLCSGFVRIGGGSGGGSEAHKSEIAHRYNDLGEQHFKGLVLIAFSQYLQKCSYDEHAKLVQEVTDFAKTCVADESAANCDKSLHTLFGDKLCAIPNLRENYGELADCCTKQEPERNECFLQHKDDNPSLPPFERPEAEAMCTSFKENPTTFMGHYLHEVARRHPYFYAPELLYYAEQYNEILTQCCAEADKESCLTPKLDGVKEKALVSSVRQRMKCSSMQKFGERAFKAWAVARLSQTFPNADFAEITKLATDLTKVNKECCHGDLLECADDRAELAKYMCENQATISSKLQTCCDKPLLKKAHCLSEVEHDTMPADLPAIAADFVEDQEVCKNYAEAKDVFLGTFLYEYSRRHPDYSVSLLLRLAKKYEATLEKCCAEANPPACYGTVLAEFQPLVEEPKNLVKTNCDLYEKLGEYGFQNAILVRYTQKAPQVSTPTLVEAARNLGRVGTKCCTLPEDQRLPCVEDYLSAILNRVCLLHEKTPVSEHVTKCCSGSLVERRPCFSALTVDETYVPKEFKAETFTFHSDICTLPEKEKQIKKQTALAELVKHKPKATAEQLKTVMDDFAQFLDTCCKAADKDTCFSTEGPNLVTRCKDALAHHHHHH
Collagen type III
  dissociation constant (Kd) to collagen type III: nM range
Collagen type I
  dissociation constant (Kd) to collagen type I: nM range
MMTV-PyMT tumor
  localization of fluorescently-labeled protein within tumor tissue: co-localized with CD31 staining within tumor tissue
